Here are results for 91 sequences from the supplement of paper PMC9112550, “Optimization of the antimicrobial peptide Bac7 by deep mutational scanning” (BMC Biology, 2022).
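Further: peptides expressed intracellularly from a pBAD plasmid library in pooled LB shake-flask culture, induced with 0.3% L-arabinose, DNA abundance read by NGS, three biological replicates, DESeq2 with apeglm shrinkage.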

This data set relates to Escherichia coli TOP10. The experiment in a line: shrunken log2 fold change of peptide-encoding DNA abundance (4.5 h post-induction vs induction); higher = less antimicrobial activity (less host growth inhibition). The conditions noted are these: time post-induction: 4.5 h; library: site-saturation at positions 5, 18, 19, 20.
On to RRIRFRPPRLPRPRPRPEVMPRP, for which the “shrunken log2 fold change” value is -0.0905.

Take RRIRIRPPRLPRPRPRPDCCPRP: the “shrunken log2 fold change” value came to 0.000204. Take RRIRFRPPRLPRPRPRPFAGPRP: the “shrunken log2 fold change” value is 0.0728. In the case of RRIRQRPPRLPRPRPRPCDYPRP, the “shrunken log2 fold change” value came to 0.07. As to RRIRYRPPRLPRPRPRPVDTPRP, the “shrunken log2 fold change” value was -0.204. Under RRIRVRPPRLPRPRPRPMNEPRP stands -0.111; under RRIRFRPPRLPRPRPRPFFLPRP, -0.32. As for RRIRKRPPRLPRPRPRPPDLPRP, the figure is 0.444. On to RRIRFRPPRLPRPRPRPMIAPRP, for which the “shrunken log2 fold change” value was -0.195. On to RRIRNRPPRLPRPRPRPDTAPRP, for which the “shrunken log2 fold change” value was -0.235. Consider RRIRVRPPRLPRPRPRPYSVPRP, for which the “shrunken log2 fold change” value is -0.265.

Regarding RRIRQRPPRLPRPRPRPLGMPRP, the “shrunken log2 fold change” value is -0.218. On to RRIRFRPPRLPRPRPRPNHTPRP, for which the “shrunken log2 fold change” value is -0.626. As for RRIRHRPPRLPRPRPRPHTCPRP, the figure is -0.141; as for RRIRKRPPRLPRPRPRPTYIPRP, -0.154; as for RRIRLRPPRLPRPRPRPMRFPRP, 0.0595. As for RRIRWRPPRLPRPRPRPNLRPRP, the figure is 0.174; as for RRIRLRPPRLPRPRPRPMNDPRP, -0.219. As for RRIRHRPPRLPRPRPRPIFTPRP, the figure is -0.191; as for RRIRWRPPRLPRPRPRPVDLPRP, -0.107; as for RRIRLRPPRLPRPRPRPIFMPRP, -0.414. As to RRIRSRPPRLPRPRPRPLNPPRP, the “shrunken log2 fold change” value was -0.0273.

On to RRIRMRPPRLPRPRPRPAYWPRP, for which the “shrunken log2 fold change” value was 0.509. As for RRIRQRPPRLPRPRPRPCPQPRP, the figure is -0.153; as for RRIRFRPPRLPRPRPRPFVHPRP, -0.728. Under RRIRTRPPRLPRPRPRPVTHPRP stands -0.0683; under RRIRYRPPRLPRPRPRPLSPPRP, -0.352; under RRIRWRPPRLPRPRPRPMMGPRP, 0.0383.

As for RRIRIRPPRLPRPRPRPSYYPRP, the “shrunken log2 fold change” value was -1.34.

Turning to RRIRKRPPRLPRPRPRPPWCPRP, the “shrunken log2 fold change” value turned out to be 0.401. Take RRIRERPPRLPRPRPRPMCLPRP: the “shrunken log2 fold change” value was -0.38. As for RRIRCRPPRLPRPRPRPVIKPRP, the figure is -0.0948; as for RRIRKRPPRLPRPRPRPPLVPRP, 0.598.

In the case of RRIRSRPPRLPRPRPRPVKEPRP, the “shrunken log2 fold change” value was 0.0656.

For RRIRLRPPRLPRPRPRPNDPPRP, the “shrunken log2 fold change” value was -0.213.

For RRIRLRPPRLPRPRPRPYHWPRP, the “shrunken log2 fold change” value was -0.188. As for RRIRKRPPRLPRPRPRPKYRPRP, the figure is -0.00889; as for RRIRHRPPRLPRPRPRPCACPRP, -0.176; as for RRIRNRPPRLPRPRPRPTCIPRP, -0.0808.

In the case of RRIRVRPPRLPRPRPRPSQAPRP, the “shrunken log2 fold change” value was 0.0916.

As for RRIRNRPPRLPRPRPRPYENPRP, the “shrunken log2 fold change” value is -0.0659. Under RRIRPRPPRLPRPRPRPVRHPRP stands 0.119; under RRIRGRPPRLPRPRPRPRVNPRP, 0.394; under RRIRYRPPRLPRPRPRPKANPRP, -0.512. Under RRIRQRPPRLPRPRPRPSMDPRP stands -0.271; under RRIRMRPPRLPRPRPRPIKDPRP, -0.165; under RRIRPRPPRLPRPRPRPMDRPRP, 0.247. As for RRIRARPPRLPRPRPRPLHIPRP, the figure is -0.559; as for RRIRDRPPRLPRPRPRPDNKPRP, -0.413; as for RRIRSRPPRLPRPRPRPETPPRP, 1.01.

As to RRIRPRPPRLPRPRPRPNGWPRP, the “shrunken log2 fold change” value is 0.296. Under RRIRLRPPRLPRPRPRPNKFPRP stands -0.206; under RRIRRRPPRLPRPRPRPIMFPRP, -0.0974; under RRIRVRPPRLPRPRPRPFEAPRP, -0.193.

As to RRIRVRPPRLPRPRPRPPPTPRP, the “shrunken log2 fold change” value came to 0.933. Take RRIRQRPPRLPRPRPRPENVPRP: the “shrunken log2 fold change” value was -0.0767. In the case of RRIRDRPPRLPRPRPRPCPQPRP, the “shrunken log2 fold change” value is -0.132. As to RRIRMRPPRLPRPRPRPKWIPRP, the “shrunken log2 fold change” value is -0.124. As for RRIRWRPPRLPRPRPRPHKRPRP, the figure is 0.0239; as for RRIRGRPPRLPRPRPRPGKLPRP, 0.461; as for RRIRMRPPRLPRPRPRPCCYPRP, -0.427. As for RRIRRRPPRLPRPRPRPGRFPRP, the figure is 0.451; as for RRIRCRPPRLPRPRPRPELIPRP, -0.0287; as for RRIRNRPPRLPRPRPRPAFCPRP, 0.0699.

For RRIRQRPPRLPRPRPRPRVHPRP, the “shrunken log2 fold change” value was -0.163. Under RRIRDRPPRLPRPRPRPCTWPRP stands 0.0101; under RRIRWRPPRLPRPRPRPMNTPRP, -0.28. As to RRIRQRPPRLPRPRPRPFYRPRP, the “shrunken log2 fold change” value was -0.0149. Under RRIRCRPPRLPRPRPRPVLLPRP stands -0.385. As to RRIRERPPRLPRPRPRPRPAPRP, the “shrunken log2 fold change” value worked out at 0.434. In the case of RRIRPRPPRLPRPRPRPFLYPRP, the “shrunken log2 fold change” value was -0.138.

Consider RRIRMRPPRLPRPRPRPMWDPRP, for which the “shrunken log2 fold change” value was found to be 0.128.

As for RRIRTRPPRLPRPRPRPPPTPRP, the “shrunken log2 fold change” value worked out at 0.828. Under RRIRYRPPRLPRPRPRPGDTPRP stands -0.276; under RRIRCRPPRLPRPRPRPNYRPRP, -0.077; under RRIRQRPPRLPRPRPRPVREPRP, -0.00762.

On to RRIRSRPPRLPRPRPRPTWGPRP, for which the “shrunken log2 fold change” value turned out to be 0.134.

In the case of RRIRWRPPRLPRPRPRPGVWPRP, the “shrunken log2 fold change” value amounted to 0.519. As for RRIRFRPPRLPRPRPRPDWGPRP, the figure is 0.00855; as for RRIRLRPPRLPRPRPRPFINPRP, -0.572.

Consider RRIRKRPPRLPRPRPRPTGWPRP, for which the “shrunken log2 fold change” value was found to be 1.44. Under RRIRSRPPRLPRPRPRPADYPRP stands -0.455; under RRIRKRPPRLPRPRPRPYKMPRP, -0.47. Consider RRIRQRPPRLPRPRPRPILCPRP, for which the “shrunken log2 fold change” value is -0.0627.

As for RRIRGRPPRLPRPRPRPMMFPRP, the “shrunken log2 fold change” value stood at 0.69.

In the case of RRIRWRPPRLPRPRPRPDFKPRP, the “shrunken log2 fold change” value was -0.0843. For the sequence RRIRKRPPRLPRPRPRPHWWPRP, the “shrunken log2 fold change” value stood at 0.119. Under RRIRERPPRLPRPRPRPKKVPRP stands -0.178; under RRIRWRPPRLPRPRPRPILEPRP, -0.548; under RRIRARPPRLPRPRPRPKTSPRP, 0.331.

As for RRIRRRPPRLPRPRPRPGTLPRP, the “shrunken log2 fold change” value was -0.0513.
